Experimental data as given in paper doi:10.1101/2020.06.02.126235.

Target: AAV2 OBD (Adeno-associated virus 2, UniProt P03132 1-199)
Assay: X-ray crystallography

Chain of AAV2 OBD (P03132 1-199): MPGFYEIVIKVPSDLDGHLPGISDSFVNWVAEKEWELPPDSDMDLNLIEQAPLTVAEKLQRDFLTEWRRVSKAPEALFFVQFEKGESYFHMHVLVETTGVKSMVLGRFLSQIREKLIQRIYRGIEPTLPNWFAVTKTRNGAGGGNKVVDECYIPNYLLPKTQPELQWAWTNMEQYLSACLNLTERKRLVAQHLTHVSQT

Binder: ATATGCTCGCTCTT (ssDNA) [ssRBS 14-mer (Site A)]
- binding result: binds
